This note sets out measurements from patent publication US7098025B1, “Human peroxisome proliferator activated receptor gamma (pparγ) gene regulatory sequences and uses therefor” (Ligand Pharmaceuticals Incorporated, priority 1997, dated 2006).

Series [1] concerns PPARγ expression. Kind of series: PPARγ expression in primary macrophages and monocytic cell lines. Type of series: cell-based. An excerpt: PPARγ is expressed in a subset of macrophages and negatively regulates the expression of several pro-inflammatory genes in response to its ligands. We recently discovered the presence of PPARγ in human macrophages foam cells of human atherosclerotic lesions. In these cells, PPARγ is present in a pattern correlated with that of oxidation-specific epitopes. Oxidized low-density lipoprotein (LDL) and macrophage colony stimulating factor (MCSF) are known to be present in atherosclerotic lesions. […] Furthermore, phorbol esters induced PPARγ expression.

The target in series [2] is PPARgamma/RXRalpha heterodimer (hamster haPPARgamma) (hamster / Mus musculus, UniProt P57797;P28700 P57797:1-475,P28700:1-467). The experiment in a line: EMSA; pH 7.9, 40 mM KCl, on ice. The note with it: tags: rabbit reticulocyte lysate (Promega); label: 32P (T4-PNK). As for the experimental part:
(§1) To analyze whether PPARγ could bind to a PPRE, classically composed of direct repeats spaced by one intervening nucleotide (DR-1), EMSA was performed using in vitro transcribed/translated PPARγ2 protein. An oligonucleotide containing a high affinity PPRE, previously identified in the apoA-II promoter J site, was used in EMSA (29).
(§2) 7. Electrophoretic Mobility Shift Assays (EMSA) and Oligonucleotide Sequences haPPARγ (39), hPPARγ2, and mRXRα (40) proteins were synthesized in vitro in rabbit reticulocyte lysate (Promega). Molecular weights and quality of the in vitro translated proteins were verified by SDS-PAGE. PPAR (2 μl) and/or RXR (2 μl) were incubated for 15 min on ice in a total volume of 20 μl with 1-ng probe, 2.5 μg of poly(dI-dC) and 1 μg of herring sperm DNA in binding buffer (10 mM Tris-HCl pH 7.9, 40 mMKCl, 10% glycerol, 0.05% Nonidet P-40, and 1 mM dithiothreitol). For competition experiments, increasing amounts (from 10- to 200-fold molar excess) of cold oligonucleotide (AII-J-PPRE, 5'-[…]-3' (41) SEQ ID NO: 24; acyl-CoA oxidase (ACO)-PPRE, 5'-[…]-3' (42) SEQ ID NO: 25; or LPL-PPRE, 5'-[…]-3 (23) SEQ ID NO: 26; were included just before adding T4-PNK end-labeled AII-J-PPRE oligonucleotide. DNA-protein complexes were separated by electrophoresis on a 4% polyacrylamide gel in 0.25×TBE buffer at 4° C. (43).
A general note: Mobility shift assays separate free from complexed probe on a gel.

In series [3] the target is PPARgamma2/RXRalpha heterodimer (Homo sapiens / Mus musculus, UniProt P37231;P28700 P37231:1-505,P28700:1-467). Kind of series: EMSA; pH 7.9, 40 mM KCl, on ice; self-competition almost complete. As to conditions: tags: rabbit reticulocyte lysate (Promega); label: 32P (T4-PNK). As for the experimental part: as §1, §2
PPARgamma2/RXRalpha heterodimer, sequence (P37231 whole entry, one chain of several): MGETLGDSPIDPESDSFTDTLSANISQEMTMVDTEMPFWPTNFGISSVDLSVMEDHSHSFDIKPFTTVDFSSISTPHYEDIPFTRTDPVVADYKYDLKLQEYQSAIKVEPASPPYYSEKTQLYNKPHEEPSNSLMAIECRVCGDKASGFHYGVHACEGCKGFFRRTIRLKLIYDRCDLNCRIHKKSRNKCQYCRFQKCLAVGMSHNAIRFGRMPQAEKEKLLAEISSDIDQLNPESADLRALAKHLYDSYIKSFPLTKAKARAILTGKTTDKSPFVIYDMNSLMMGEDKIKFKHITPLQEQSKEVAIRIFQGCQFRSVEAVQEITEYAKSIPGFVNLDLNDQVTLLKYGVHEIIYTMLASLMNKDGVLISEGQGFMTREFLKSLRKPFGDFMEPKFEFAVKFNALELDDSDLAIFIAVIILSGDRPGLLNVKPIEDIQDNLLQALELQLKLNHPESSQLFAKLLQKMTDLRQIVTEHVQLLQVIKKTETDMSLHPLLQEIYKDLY
Series [4] deals with T1, RXRalpha (Mus musculus, UniProt P28700 P28700:1-467).
T1 sequence: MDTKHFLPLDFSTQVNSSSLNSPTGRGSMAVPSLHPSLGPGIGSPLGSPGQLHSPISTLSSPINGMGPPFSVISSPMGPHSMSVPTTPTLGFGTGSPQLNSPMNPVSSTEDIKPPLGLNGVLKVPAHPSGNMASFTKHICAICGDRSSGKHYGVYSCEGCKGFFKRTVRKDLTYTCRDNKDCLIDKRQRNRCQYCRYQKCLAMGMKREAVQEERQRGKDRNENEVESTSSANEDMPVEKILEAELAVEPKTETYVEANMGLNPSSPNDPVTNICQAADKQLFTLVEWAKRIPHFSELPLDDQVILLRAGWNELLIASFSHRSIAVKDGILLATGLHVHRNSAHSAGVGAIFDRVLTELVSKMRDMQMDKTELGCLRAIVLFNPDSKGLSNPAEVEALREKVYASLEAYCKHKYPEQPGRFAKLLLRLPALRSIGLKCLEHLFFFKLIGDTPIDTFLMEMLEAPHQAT
Kind of series: EMSA; homodimer, no PPAR. As to conditions: tags: rabbit reticulocyte lysate (Promega); label: 32P (T4-PNK). The protocol:
as §1, §2

The target of series [5] is PPARgamma2 (Homo sapiens, UniProt P37231 P37231:1-505). Kind of series: EMSA; homodimer, no RXR. As to conditions: tags: rabbit reticulocyte lysate (Promega); label: 32P (T4-PNK). The protocol:
as §1, §2

PPARgamma2, sequence (P37231 whole entry, one chain of several): as the sequence (P37231 whole entry, one chain of several) above

B1: MCSF: macrophage colony stimulating factor (protein, UniProt P09603 33-554, looked up)
Macrophage colony-stimulating …: EEVSEYCSHMIGSGHLQSLQRLIDSQMETSCQITFEFVDQEQLKDPVCYLKKAFLLVQDIMEDTMRFRDNTPNAIAIVQLQELSLRLKSCFTKDYEEHDKACVRTFYETPLQLLEKVKNVFNETKNLLDKDWNIFSKNCNNSFAECSSQDVVTKPDCNCLYPKAIPSSDPASVSPHQPLAPSMAPVAGLTWEDSEGTEGSSLLPGEQPLHTVDPGSAKQRPPRSTCQSFEPPETPVVKDSTIGGSPQPRPSVGAFNPGMEDILDSAMGTNWVPEEASGEASEIPVPQGTELSPSRPGGGSMQTEPARPSNFLSASSPLPASAKGQQPADVTGTALPRVGPVRPTGQDWNHTPQKTDHPSALLRDPPEPGSPRISSLRPQGLSNPSTLSAQPQLSRSHSSGSVLPLGELEGRRSTRDRRSPAEPEGGPASEGAARPLPRFNSVPLTDTGHERQSEGSFSPQLQESVFHLLVPSVILVLLAVGGLLFYRWRRRSHQEPQRADSPLEQPEGSPLTQDDRQVELPV
Regarding B1, in series [1], the PPARγ expression result was “stimulate PPARγ expression”.

B2: apoA-II J site PPRE (dsDNA)
DNA 1: GATCCTTCAACCTTTACCCTGGTAGA
DNA 2: TCTACCAGGGTAAAGGTTGAAGGATC
Turning to B2, the binding result in series [2] was “binds”; in series [3] it was “binds”; in series [4] it was “no binding”; in series [5] it was “no binding”.
